How the values were obtained:
mFGFR4-Histag [1] = biological target: T1, mFGFR4-Histag (murine, UniProt Q03142 19-362); assay: SPR (BIAcore 3000)
T1 construct: also called murine protein mFGFR4; murine FGF-R4

hFGFR4-Histag [2] = biological target: T2, hFGFR4-Histag (human, UniProt P22455 22-365); assay: SPR (BIAcore 3000)
T2 construct: also called SABVA4614

hFGFR4(D2,D3)-Histag [3] = biological target: T3, hFGFR4(D2,D3)-Histag (human, UniProt P22455 22-365); assay: ELISA, HEK293 supernatant IgG on coated antigen
T3 construct: also called extracellular domain of FGF-R4 deleted of its D1 domain
From the text: (§1) The capture antigen was bound to Immulon-4 enzyme-linked plates (VWR Scientific Inc. Swedesboro, N.J.).

hFGFR4-Histag [4] = biological target: T2, hFGFR4-Histag; assay: ELISA, HEK293 supernatant IgG on coated antigen
From the text: as §1

hFGFR2-Fc = biological target: T4, hFGFR2-Fc (human); assay: phage Fab ELISA on coated antigen, anti-M13 detection
T4 construct: Extracellular domain of human FGF-R2 IIIc fused C-terminally to the Fc domain of human IgG1
From the text: (§2) The specificity of each antibody is established by ELISA according to the following protocol: suspensions of phages displaying, at their surface, the antibodies in the Fab format are generated by infection of E. coli bacteria. The capture antigens were bound to Immulon-2 enzyme-linked dishes (VWR Scientific Inc. Swedesboro, N.J.).

hFGFR4(D2,D3)-Histag [5] = biological target: T3, hFGFR4(D2,D3)-Histag; assay: as above
From the text: as §2

hFGFR3-Fc [6] = biological target: T5, hFGFR3-Fc (human, UniProt P22607 23-375); assay: as above
T5 construct: extracellular domain; Bought from R&D Systems; not shown: Fc domain of human IgG1
T5 sequence (looked up): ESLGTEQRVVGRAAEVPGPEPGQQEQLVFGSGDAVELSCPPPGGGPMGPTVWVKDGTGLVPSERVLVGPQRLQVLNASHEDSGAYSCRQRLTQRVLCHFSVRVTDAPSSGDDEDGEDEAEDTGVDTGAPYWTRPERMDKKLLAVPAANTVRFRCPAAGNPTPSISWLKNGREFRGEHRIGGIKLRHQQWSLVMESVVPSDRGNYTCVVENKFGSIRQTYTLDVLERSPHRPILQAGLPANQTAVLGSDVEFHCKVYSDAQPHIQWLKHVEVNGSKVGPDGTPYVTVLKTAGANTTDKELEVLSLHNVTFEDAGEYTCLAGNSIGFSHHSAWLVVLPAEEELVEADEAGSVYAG

hFGFR1-Fc = biological target: T6, hFGFR1-Fc (human); assay: as above
T6 construct: Extracellular domain of human FGF-R1 IIIc fused C-terminally to the Fc domain of human IgG1
From the text: as §2

[7] = biological target: T7, human FGF-R4 recombinant extracellular domain protein, construct not named (human, UniProt P22455 22-369); assay: SPR (BIAcore), antibody captured by anti-Fc antibody on the chip
T7 construct: extracellular domain; also called the FGF-R4 protein; complete extracellular domain of human FGF-R4

hFGFR3-Fc [8] = biological target: T5, hFGFR3-Fc; assay: ELISA on plates coated with the 4 human FGF receptors, single condition, antibody concentration not given
mFGFR4-Histag [9] = biological target: T1, mFGFR4-Histag; assay: ELISA on coated FGF-R4 constructs, single condition, antibody concentration not given

T1 sequence (Q03142 other isoform, or with tags, fused parts or gaps): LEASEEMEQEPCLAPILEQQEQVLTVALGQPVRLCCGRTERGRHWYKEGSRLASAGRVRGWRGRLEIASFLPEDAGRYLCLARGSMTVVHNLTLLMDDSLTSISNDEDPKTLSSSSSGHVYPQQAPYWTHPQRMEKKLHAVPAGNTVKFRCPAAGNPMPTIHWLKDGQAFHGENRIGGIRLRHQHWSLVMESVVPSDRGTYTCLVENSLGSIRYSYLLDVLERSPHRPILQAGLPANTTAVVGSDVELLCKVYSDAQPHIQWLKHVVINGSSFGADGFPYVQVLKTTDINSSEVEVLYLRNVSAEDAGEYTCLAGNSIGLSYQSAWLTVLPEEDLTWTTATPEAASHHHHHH

B1: anti-FGFR4 antibody clone 8 (human IgG1 format) (antibody, V domains shown)
VH: EVQLLESGGGLVQPGGSLRLSCAASGFTFSPYWMGWVRQAPGKGLEWVSVIWPSGGTTDYADSVKGRFTISRDNSKNTLYLQMNSLRAEDTAVYYCARVHPAGHNDHWGQGTLVTVSS
VL: QSELTQPPSASGTPGQRVTISCSGGYSNMGSNYAHWYQQLPGTAPKLLIYNNNQRPSGVPDRFSGSKSGTSASLAISGLRSEDEADYYCAAWDDSLSGPVFGGGTKLTVLG
notes: also called antibody 8
Question: What does the source list for B1?
Answer: Kd (mFGFR4-Histag [1]): 0.115 nM; koff (mFGFR4-Histag [1]): 0.000136 s⁻¹; kon (mFGFR4-Histag [1]): 1.2e+06 M⁻¹ s⁻¹; Kd (hFGFR4-Histag [2]): 0.327 nM; koff (hFGFR4-Histag [2]): 0.000292 s⁻¹; kon (hFGFR4-Histag [2]): 893000 M⁻¹ s⁻¹; OD signal at 450 nm (hFGFR4(D2,D3)-Histag [3]): 3.86 OD 450 nm; OD signal at 450 nm (hFGFR4-Histag [4]): 3.9 OD 450 nm

B2: clone 8 in the Fab format displayed on phage (Fab, V domains shown)
VH: EVQLLESGGGLVQPGGSLRLSCAASGFTFSPYWMGWVRQAPGKGLEWVSVIWPSGGTTDYADSVKGRFTISRDNSKNTLYLQMNSLRAEDTAVYYCARVHPAGHNDHWGQGTLVTVSS
VL: QSELTQPPSASGTPGQRVTISCSGGYSNMGSNYAHWYQQLPGTAPKLLIYNNNQRPSGVPDRFSGSKSGTSASLAISGLRSEDEADYYCAAWDDSLSGPVFGGGTKLTVLG
Question: What does the source list for B2?
Answer: ELISA signal (OD, 450 nm) (hFGFR2-Fc): 0 OD 450 nm; ELISA signal (OD, 450 nm) (hFGFR4(D2,D3)-Histag [5]): 2.55 OD 450 nm; ELISA signal (OD, 450 nm) (hFGFR3-Fc [6]): 0 OD 450 nm; ELISA signal (OD, 450 nm) (hFGFR1-Fc): 0.05 OD 450 nm

B3: anti-FGFR4 antibody clone 31 (human IgG1 format) (antibody, V domains shown)
VH: EVQLLESGGGLVQPGGSLRLSCAASGFTFSRYFMKWVRQAPGKGLEWVSWISPSGGLTEYADSVKGRFTISRDNSKNTLYLQMNSLRAEDTAVYYCARASYGAWLDYWGQGTLVTVSS
VL: DIQMTQSPSSLSLSPGERATLSCRASQSINRNLGWYQQKPGQAPRLLIYGASTRATGIPARFTGSGSGTEFSLTISSLQSEDYAIYYCQQYDNWPIIFGQGTRLEIKG
notes: As for clone 8: human IgG1 format from HEK293; also called antibody 31
Question: With B3 as the binder, how does the Kd (mFGFR4-Histag [1]) read?
Answer: 1.97 nM

Question: And the koff (mFGFR4-Histag [1])?
Answer: 0.0018 s⁻¹

Question: And the kon (mFGFR4-Histag [1])?
Answer: 914000 M⁻¹ s⁻¹

Question: What about the Kd (hFGFR4-Histag [2]) of the same binder?
Answer: 1.52 nM

Question: And the koff (hFGFR4-Histag [2])?
Answer: 0.00098 s⁻¹

Question: What about the kon (hFGFR4-Histag [2]) of the same binder?
Answer: 648000 M⁻¹ s⁻¹

Question: What about the “OD signal at 450 nm” value (hFGFR4(D2,D3)-Histag [3]) of the same binder?
Answer: 3.74 OD 450 nm

Question: And the “OD signal at 450 nm” value (hFGFR4-Histag [4])?
Answer: 3.86 OD 450 nm

B4: clone 31 in the Fab format displayed on phage (Fab, V domains shown)
VH: EVQLLESGGGLVQPGGSLRLSCAASGFTFSRYFMKWVRQAPGKGLEWVSWISPSGGLTEYADSVKGRFTISRDNSKNTLYLQMNSLRAEDTAVYYCARASYGAWLDYWGQGTLVTVSS
VL: DIQMTQSPSSLSLSPGERATLSCRASQSINRNLGWYQQKPGQAPRLLIYGASTRATGIPARFTGSGSGTEFSLTISSLQSEDYAIYYCQQYDNWPIIFGQGTRLEIKG
Question: What does the source list for B4?
Answer: ELISA signal (OD, 450 nm) (hFGFR2-Fc): 0 OD 450 nm; ELISA signal (OD, 450 nm) (hFGFR4(D2,D3)-Histag [5]): 2.52 OD 450 nm; ELISA signal (OD, 450 nm) (hFGFR3-Fc [6]): 0.01 OD 450 nm; ELISA signal (OD, 450 nm) (hFGFR1-Fc): 0 OD 450 nm

B5: anti-FGFR4 antibody 64-12 (antibody, mouse IgG1, V domains shown)
VH: DVQLVESGGGLVQPGGSRKLSCAASGFTFSNFGMHWVRQAPEKGLEWVAYISSGSSTIYYADTVKGRFTISRDNPKNTLFLQMTSLRSEDTAMYYCARYDYDDDYYAMEYWGQGTSVTVSS
VL: QAVVTQESALTTSPGETVTLTCRSSTGAVTTSNYANWVQEKPDHLFTGLIGGTNNRAPGVPARFSGSLIGDKAALTITGAQTEDEAIYFCALWYSNHWVFGGGTKLTVLG
notes: also called clone 64-12; control antibody 64-12
Question: Which Kd [7] does the source give for B5 here?
Answer: 57.5 nM

Question: What about the koff [7] of the same binder?
Answer: 0.000602 s⁻¹

Question: And the kon [7]?
Answer: 10500 M⁻¹ s⁻¹

Question: Does B5 bind (hFGFR3-Fc [8])?
Answer: binds

Question: Does B5 bind (mFGFR4-Histag [9])?
Answer: binds

— patent US20110150903A1 (Sanofi, published 2011)
